In PMC7367873, “Dissecting the sequence determinants for dephosphorylation by the catalytic subunits of phosphatases PP1 and PP2A” (Nature Communications, 2020):

Key:
GFP-14-3-3β = GFP-14-3-3β co-IP with LC-MS/MS, untreated GFP-14-3-3β versus GFP control (14-3-3 interactome); type: binding, human; settings: pairwise comparison untreated vs GFP
[1] = test system: GFP-14-3-3β and its binding proteins; assay: GFP-14-3-3β co-IP with LC-MS/MS label-free quantification, untreated versus PP1c-treated; design: species or system human; settings: pairwise comparison PP1 vs untreated
[2] = log2 difference, label-free quantification, 3 replicates each

B1: USP53 (protein, UniProt Q70EK8 1-1073, looked up)
Ubiquitin carboxyl-terminal …: MAWVKFLRKPGGNLGKVYQPGSMLSLAPTKGLLNEPGQNSCFLNSAVQVLWQLDIFRRSLRVLTGHVCQGDACIFCALKTIFAQFQHSREKALPSDNIRHALAESFKDEQRFQLGLMDDAAECFENMLERIHFHIVPSRDADMCTSKSCITHQKFAMTLYEQCVCRSCGASSDPLPFTEFVRYISTTALCNEVERMLERHERFKPEMFAELLQAANTTDDYRKCPSNCGQKIKIRRVLMNCPEIVTIGLVWDSEHSDLTEAVVRNLATHLYLPGLFYRVTDENAKNSELNLVGMICYTSQHYCAFAFHTKSSKWVFFDDANVKEIGTRWKDVVSKCIRCHFQPLLLFYANPDGTAVSTEDALRQVISWSHYKSVAENMGCEKPVIHKSDNLKENGFGDQAKQRENQKFPTDNISSSNRSHSHTGVGKGPAKLSHIDQREKIKDISRECALKAIEQKNLLSSQRKDLEKGQRKDLGRHRDLVDEDLSHFQSGSPPAPNGFKQHGNPHLYHSQGKGSYKHDRVVPQSRASAQIISSSKSQILAPGEKITGKVKSDNGTGYDTDSSQDSRDRGNSCDSSSKSRNRGWKPMRETLNVDSIFSESEKRQHSPRHKPNISNKPKSSKDPSFSNWPKENPKQKGLMTIYEDEMKQEIGSRSSLESNGKGAEKNKGLVEGKVHGDNWQMQRTESGYESSDHISNGSTNLDSPVIDGNGTVMDISGVKETVCFSDQITTSNLNKERGDCTSLQSQHHLEGFRKELRNLEAGYKSHEFHPESHLQIKNHLIKRSHVHEDNGKLFPSSSLQIPKDHNAREHIHQSDEQKLEKPNECKFSEWLNIENSERTGLPFHVDNSASGKRVNSNEPSSLWSSHLRTVGLKPETAPLIQQQNIMDQCYFENSLSTECIIRSASRSDGCQMPKLFCQNLPPPLPPKKYAITSVPQSEKSESTPDVKLTEVFKATSHLPKHSLSTASEPSLEVSTHMNDERHKETFQVRECFGNTPNCPSSSSTNDFQANSGAIDAFCQPELDSISTCPNETVSLTTYFSVDSCMTDTYRLKYHQRPKLSFPESSGFCNNSLS
Difference (log2), untreated vs GFP (GFP-14-3-3β; [2]): 5.4971
Difference (log2), PP1 vs untreated [1, 2]: 1.978

B2: DDX17 (protein, UniProt Q92841 1-729, looked up)
Probable ATP-dependent RNA …: MPTGFVAPILCVLLPSPTREAATVASATGDSASERESAAPAAAPTAEAPPPSVVTRPEPQALPSPAIRAPLPDLYPFGTMRGGGFGDRDRDRDRGGFGARGGGGLPPKKFGNPGERLRKKKWDLSELPKFEKNFYVEHPEVARLTPYEVDELRRKKEITVRGGDVCPKPVFAFHHANFPQYVMDVLMDQHFTEPTPIQCQGFPLALSGRDMVGIAQTGSGKTLAYLLPAIVHINHQPYLERGDGPICLVLAPTRELAQQVQQVADDYGKCSRLKSTCIYGGAPKGPQIRDLERGVEICIATPGRLIDFLESGKTNLRRCTYLVLDEADRMLDMGFEPQIRKIVDQIRPDRQTLMWSATWPKEVRQLAEDFLRDYTQINVGNLELSANHNILQIVDVCMESEKDHKLIQLMEEIMAEKENKTIIFVETKRRCDDLTRRMRRDGWPAMCIHGDKSQPERDWVLNEFRSGKAPILIATDVASRGLDVEDVKFVINYDYPNSSEDYVHRIGRTARSTNKGTAYTFFTPGNLKQARELIKVLEEANQAINPKLMQLVDHRGGGGGGGGRSRYRTTSSANNPNLMYQDECDRRLRGVKDGGRRDSASYRDRSETDRAGYANGSGYGSPNSAFGAQAGQYTYGQGTYGAAAYGTSSYTAQEYGAGTYGASSTTSTGRSSQSSSQQFSGIGRSGQQPQPLMSQQFAQPPGATNMIGYMGQTAYQYPPPPPPPPPSRK
Difference (log2), untreated vs GFP (GFP-14-3-3β): 0.6933 log2
Difference (log2), PP1 vs untreated [1]: 0.07996 log2

B3: SLC3A2 (protein, UniProt P08195 1-630, looked up)
Amino acid transporter heavy …: MELQPPEASIAVVSIPRQLPGSHSEAGVQGLSAGDDSELGSHCVAQTGLELLASGDPLPSASQNAEMIETGSDCVTQAGLQLLASSDPPALASKNAEVTGTMSQDTEVDMKEVELNELEPEKQPMNAASGAAMSLAGAEKNGLVKIKVAEDEAEAAAAAKFTGLSKEELLKVAGSPGWVRTRWALLLLFWLGWLGMLAGAVVIIVRAPRCRELPAQKWWHTGALYRIGDLQAFQGHGAGNLAGLKGRLDYLSSLKVKGLVLGPIHKNQKDDVAQTDLLQIDPNFGSKEDFDSLLQSAKKKSIRVILDLTPNYRGENSWFSTQVDTVATKVKDALEFWLQAGVDGFQVRDIENLKDASSFLAEWQNITKGFSEDRLLIAGTNSSDLQQILSLLESNKDLLLTSSYLSDSGSTGEHTKSLVTQYLNATGNRWCSWSLSQARLLTSFLPAQLLRLYQLMLFTLPGTPVFSYGDEIGLDAAALPGQPMEAPVMLWDESSFPDIPGAVSANMTVKGQSEDPGSLLSLFRRLSDQRSKERSLLHGDFHAFSAGPGLFSYIRHWDQNERFLVVLNFGDVGLSAGLQASDLPASASLPAKADLLLSTQPGREEGSPLELERLKLEPHEGLLLRFPYAA
Difference (log2), untreated vs GFP (GFP-14-3-3β): 0.2155 log2
Difference (log2), PP1 vs untreated [1]: 0.07419 log2

B4: HDLBP (protein, UniProt Q00341 2-1268, looked up)
Vigilin: SSVAVLTQESFAEHRSGLVPQQIKVATLNSEEESDPPTYKDAFPPLPEKAACLESAQEPAGAWGNKIRPIKASVITQVFHVPLEERKYKDMNQFGEGEQAKICLEIMQRTGAHLELSLAKDQGLSIMVSGKLDAVMKARKDIVARLQTQASATVAIPKEHHRFVIGKNGEKLQDLELKTATKIQIPRPDDPSNQIKITGTKEGIEKARHEVLLISAEQDKRAVERLEVEKAFHPFIAGPYNRLVGEIMQETGTRINIPPPSVNRTEIVFTGEKEQLAQAVARIKKIYEEKKKKTTTIAVEVKKSQHKYVIGPKGNSLQEILERTGVSVEIPPSDSISETVILRGEPEKLGQALTEVYAKANSFTVSSVAAPSWLHRFIIGKKGQNLAKITQQMPKVHIEFTEGEDKITLEGPTEDVNVAQEQIEGMVKDLINRMDYVEINIDHKFHRHLIGKSGANINRIKDQYKVSVRIPPDSEKSNLIRIEGDPQGVQQAKRELLELASRMENERTKDLIIEQRFHRTIIGQKGERIREIRDKFPEVIINFPDPAQKSDIVQLRGPKNEVEKCTKYMQKMVADLVENSYSISVPIFKQFHKNIIGKGGANIKKIREESNTKIDLPAENSNSETIIITGKRANCEAARSRILSIQKDLANIAEVEVSIPAKLHNSLIGTKGRLIRSIMEECGGVHIHFPVEGSGSDTVVIRGPSSDVEKAKKQLLHLAEEKQTKSFTVDIRAKPEYHKFLIGKGGGKIRKVRDSTGARVIFPAAEDKDQDLITIIGKEDAVREAQKELEALIQNLDNVVEDSMLVDPKHHRHFVIRRGQVLREIAEEYGGVMVSFPRSGTQSDKVTLKGAKDCVEAAKKRIQEIIEDLEAQVTLECAIPQKFHRSVMGPKGSRIQQITRDFSVQIKFPDREENAVHSTEPVVQENGDEAGEGREAKDCDPGSPRRCDIIIISGRKEKCEAAKEALEALVPVTIEVEVPFDLHRYVIGQKGSGIRKMMDEFEVNIHVPAPELQSDIIAITGLAANLDRAKAGLLERVKELQAEQEDRALRSFKLSVTVDPKYHPKIIGRKGAVITQIRLEHDVNIQFPDKDDGNQPQDQITITGYEKNTEAARDAILRIVGELEQMVSEDVPLDHRVHARIIGARGKAIRKIMDEFKVDIRFPQSGAPDPNCVTVTGLPENVEEAIDHILNLEEEYLADVVDSEALQVYMKPPAHEEAKAPSRGFVVRDAPWTASSSEKAPDMSSSEEFPSFGAQVAPKTLPWGPKR
Difference (log2), untreated vs GFP (GFP-14-3-3β): 0.159 log2
Difference (log2), PP1 vs untreated [1]: 0.06756 log2

B5: SOAT1 (protein, UniProt P35610 1-550, looked up)
Sterol O-acyltransferase 1: MVGEEKMSLRNRLSKSRENPEEDEDQRNPAKESLETPSNGRIDIKQLIAKKIKLTAEAEELKPFFMKEVGSHFDDFVTNLIEKSASLDNGGCALTTFSVLEGEKNNHRAKDLRAPPEQGKIFIARRSLLDELLEVDHIRTIYHMFIALLILFILSTLVVDYIDEGRLVLEFSLLSYAFGKFPTVVWTWWIMFLSTFSVPYFLFQHWATGYSKSSHPLIRSLFHGFLFMIFQIGVLGFGPTYVVLAYTLPPASRFIIIFEQIRFVMKAHSFVRENVPRVLNSAKEKSSTVPIPTVNQYLYFLFAPTLIYRDSYPRNPTVRWGYVAMKFAQVFGCFFYVYYIFERLCAPLFRNIKQEPFSARVLVLCVFNSILPGVLILFLTFFAFLHCWLNAFAEMLRFGDRMFYKDWWNSTSYSNYYRTWNVVVHDWLYYYAYKDFLWFFSKRFKSAAMLAVFAVSAVVHEYALAVCLSFFYPVLFVLFMFFGMAFNFIVNDSRKKPIWNVLMWTSLFLGNGVLLCFYSQEWYARQHCPLKNPTFLDYVRPRSWTCRYVF
Difference (log2), untreated vs GFP (GFP-14-3-3β): 0.443 log2
Difference (log2), PP1 vs untreated [1]: 0.06363 log2

B6: LYPD3 (protein, UniProt O95274 31-326, looked up)
Ly6/PLAUR domain-containing …: LECYSCVQKADDGCSPNKMKTVKCAPGVDVCTEAVGAVETIHGQFSLAVRGCGSGLPGKNDRGLDLHGLLAFIQLQQCAQDRCNAKLNLTSRALDPAGNESAYPPNGVECYSCVGLSREACQGTSPPVVSCYNASDHVYKGCFDGNVTLTAANVTVSLPVRGCVQDEFCTRDGVTGPGFTLSGSCCQGSRCNSDLRNKTYFSPRIPPLVRLPPPEPTTVASTTSVTTSTSAPVRPTSTTKPMPAPTSQTPRQGVEHEASRDEEPRLTGGAAGHQDRSNSGQYPAKGGPQQPHNKGC
Difference (log2), untreated vs GFP (GFP-14-3-3β): -0.7562 log2
Difference (log2), PP1 vs untreated [1]: 0.03143 log2

B7: EEF1A1P5;EEF1A1 (protein, UniProt P68104 2-462, looked up)
Elongation factor 1-alpha 1: GKEKTHINIVVIGHVDSGKSTTTGHLIYKCGGIDKRTIEKFEKEAAEMGKGSFKYAWVLDKLKAERERGITIDISLWKFETSKYYVTIIDAPGHRDFIKNMITGTSQADCAVLIVAAGVGEFEAGISKNGQTREHALLAYTLGVKQLIVGVNKMDSTEPPYSQKRYEEIVKEVSTYIKKIGYNPDTVAFVPISGWNGDNMLEPSANMPWFKGWKVTRKDGNASGTTLLEALDCILPPTRPTDKPLRLPLQDVYKIGGIGTVPVGRVETGVLKPGMVVTFAPVNVTTEVKSVEMHHEALSEALPGDNVGFNVKNVSVKDVRRGNVAGDSKNDPPMEAAGFTAQVIILNHPGQISAGYAPVLDCHTAHIACKFAELKEKIDRRSGKKLEDGPKFLKSGDAAIVDMVPGKPMCVESFSDYPPLGRFAVRDMRQTVAVGVIKAVDKKAAGAGKVTKSAQKAQKAK
Difference (log2), untreated vs GFP (GFP-14-3-3β): -0.241 log2
Difference (log2), PP1 vs untreated [1]: 0.02225 log2
